Measurements from the supplement of paper PMC7125110.
± gives the standard error. Fewer inactive variants are shown than the library holds.

B1: glmS ribozyme (parent)
chain: AUAAAAGCGCCAGAACUACAGAAAUGUAGUUGACGAGGAGGAGGUUUAUCGAAUUUUCGGCGGAUGCCUCCAAA

Legend:
Conditions in all cases: with glucosamine-6-phosphate
glucosamine-6-phosphate [1] = variants of: B1; experiment: self-cleavage kobs at 640 uM GlcN6P; higher = faster cleavage; RNA array
How it was run: (§1)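 The measurements used barcoded ribozyme variants on sequenced MiSeq chips, transcribed in situ by E. coli RNA polymerase and tracked at 37 °C with a hybridised Cy3 probe. Glucosamine-6-phosphate, 40 μM to 10 mM in HEPES/KCl/Mg(OAc)2 buffer, was flowed in while tiles were imaged over ~14 h. Baseline-normalised signals, also normalised to non-cleaving reference variants, gave per-tile medians that were fit to one- or two-exponential decays for kobs. kcat and KM resulted from weighted Michaelis–Menten fits across concentrations.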

glucosamine-6-phosphate [2] = variants of: B1; experiment: self-cleavage kobs at 2500 uM GlcN6P; higher = faster cleavage; RNA array
How it was run: as §1

glucosamine-6-phosphate [3] = variants of: B1; experiment: self-cleavage kobs at 10000 uM GlcN6P; higher = faster cleavage; RNA array
How it was run: as §1

| Variant | self-cleavage kobs at 640 uM GlcN6P (glucosamine-6-phosphate [1]) | self-cleavage kobs at 2500 uM GlcN6P (glucosamine-6-phosphate [2]) | self-cleavage kobs at 10000 uM GlcN6P (glucosamine-6-phosphate [3]) |
| --- | --- | --- | --- |
| G13C A36U G59A | < 1e-05 s⁻¹ |  |  |
| A6U G29C U56A | < 1e-05 s⁻¹ |  |  |
| G35A U45G U57C | < 1e-05 s⁻¹ |  |  |
| C8A G13A G37U G59C C68G | 0.000781 ± 0.00025 s⁻¹ |  |  |
| G7C A12G A36C | < 1e-05 s⁻¹ |  |  |
| G43C A52C C68A | < 1e-05 s⁻¹ |  |  |
| A14U A33G G38A | < 1e-05 s⁻¹ | < 1e-05 s⁻¹ |  |
| U47G G51U | < 1e-05 s⁻¹ |  |  |
| G9A C10U C68A | < 1e-05 s⁻¹ |  |  |
| A14U G40C U69C C71U | < 1e-05 s⁻¹ |  |  |
| C11U A15G G60U | < 1e-05 s⁻¹ |  |  |
| C8U C58A U65C | < 1e-05 s⁻¹ | < 1e-05 s⁻¹ |  |
| G13A G40A G44U C67U C68G | < 1e-05 s⁻¹ | < 1e-05 s⁻¹ | < 1e-05 s⁻¹ |
| U46G C50U C67U C68A U69G | 0.00024 ± 9.9e-05 s⁻¹ |  | 4.36e-05 ± 1.5e-05 s⁻¹ |
| C16U U46C U55A C70U | 0.00101 ± 0.00034 s⁻¹ | 0.00219 ± 0.0006 s⁻¹ | 0.00226 ± 0.00047 s⁻¹ |
| C10U A39U G62A | < 1e-05 s⁻¹ |  |  |
| A15U U31C U55G G63U | < 1e-05 s⁻¹ |  |  |
| U57C G62C C68G | < 1e-05 s⁻¹ |  |  |
| G9A G38A A42G U69G C70U C71A | < 1e-05 s⁻¹ |  |  |
| C8G G32U G38U G44A | < 1e-05 s⁻¹ |  |  |
| G38A A52G C68G | 7.2e-05 ± 2.5e-05 s⁻¹ |  |  |
| G35U G44U C68A | < 1e-05 s⁻¹ | < 1e-05 s⁻¹ |  |
| G41A U55C | 1.88e-05 ± 8.5e-06 s⁻¹ | 0.000105 ± 1.9e-05 s⁻¹ |  |

| Variant | self-cleavage kobs at 640 uM GlcN6P (glucosamine-6-phosphate [1]) | self-cleavage kobs at 2500 uM GlcN6P (glucosamine-6-phosphate [2]) | self-cleavage kobs at 10000 uM GlcN6P (glucosamine-6-phosphate [3]) |
| --- | --- | --- | --- |
| C8U G9A A15U A39G | < 1e-05 s⁻¹ | < 1e-05 s⁻¹ |  |
| G13C U31G C61U U69C | < 1e-05 s⁻¹ |  |  |
| G9U C10U G38U G44C U49C | < 1e-05 s⁻¹ |  |  |
| A36G G41A C61G C71U | < 1e-05 s⁻¹ | < 1e-05 s⁻¹ |  |
| G37A U45C | 5.03e-05 ± 1.6e-05 s⁻¹ | 6.95e-05 ± 1.3e-05 s⁻¹ | 0.000173 ± 4.9e-05 s⁻¹ |
| U65G G66C | 0.000223 ± 4.9e-05 s⁻¹ |  | 0.00137 ± 0.00016 s⁻¹ |
| A15U G38U A39C G41U U49G C70G C71G | < 1e-05 s⁻¹ |  |  |
| A6C A42U C50U U57A G62C | < 1e-05 s⁻¹ |  |  |
| G13C G37U G60U | < 1e-05 s⁻¹ |  |  |
| U45C U54G U56A | 0.000123 ± 2.3e-05 s⁻¹ | 0.000428 ± 0.00012 s⁻¹ | 0.000928 ± 0.00017 s⁻¹ |
| G40A A42G A53U | 0.000733 ± 0.00023 s⁻¹ | 0.000522 ± 0.00021 s⁻¹ |  |
| U54A A64G C68G | 5.8e-05 ± 2.1e-05 s⁻¹ | 0.000109 ± 3.5e-05 s⁻¹ |  |
| G7U C8U G40U G62C | < 1e-05 s⁻¹ |  |  |
| C10G U47C U49C U55G | < 1e-05 s⁻¹ |  |  |
| G9U C34U A39G | < 1e-05 s⁻¹ |  |  |
| C8U G13C A14C | < 1e-05 s⁻¹ | < 1e-05 s⁻¹ |  |
| C8G G13C G59A U69G | < 1e-05 s⁻¹ |  |  |
| G9C C11G | < 1e-05 s⁻¹ | < 1e-05 s⁻¹ | < 1e-05 s⁻¹ |
| G29U C34U G40U A42C U55A G66U | < 1e-05 s⁻¹ | < 1e-05 s⁻¹ |  |
| C8A C10G A15G C16G C50A G63U | < 1e-05 s⁻¹ |  |  |
| A12C G41A A42U G51C C68G C70U | < 1e-05 s⁻¹ |  |  |
| A15U C50G C71G | 0.000108 ± 2.6e-05 s⁻¹ | 0.000148 ± 5.1e-05 s⁻¹ |  |
| U49G C50U G66U C70U | 8.76e-05 ± 3.9e-05 s⁻¹ |  |  |

| Variant | self-cleavage kobs at 640 uM GlcN6P (glucosamine-6-phosphate [1]) | self-cleavage kobs at 2500 uM GlcN6P (glucosamine-6-phosphate [2]) | self-cleavage kobs at 10000 uM GlcN6P (glucosamine-6-phosphate [3]) |
| --- | --- | --- | --- |
| A12U G13U U46G | < 1e-05 s⁻¹ |  |  |
| A6U G40U U65C C68U | < 1e-05 s⁻¹ | < 1e-05 s⁻¹ |  |
| U57A G60A C67G | 6.42e-05 ± 2.2e-05 s⁻¹ | 0.000109 ± 3.2e-05 s⁻¹ |  |
| G32U A52U C58U | < 1e-05 s⁻¹ | < 1e-05 s⁻¹ |  |
| G7C C8G G9C C19A C61A | < 1e-05 s⁻¹ | < 1e-05 s⁻¹ |  |
| C34U G43U G59C | < 1e-05 s⁻¹ | < 1e-05 s⁻¹ |  |
| A14U C58A C70A | 7.42e-05 ± 2.4e-05 s⁻¹ |  |  |
| U65G A72C | 0.000308 ± 7.4e-05 s⁻¹ |  |  |
| U55C C58A C70U | 4.34e-05 ± 1.9e-05 s⁻¹ | 5.54e-05 ± 1.5e-05 s⁻¹ |  |
| G37C A48C C71G | < 1e-05 s⁻¹ |  |  |
| C8G C10A G41A | < 1e-05 s⁻¹ | < 1e-05 s⁻¹ |  |
| A6G U30A G41A C68U | < 1e-05 s⁻¹ |  |  |
| C11A G13U U31A G32A U47G | < 1e-05 s⁻¹ |  |  |
| C8G G35A U55C G60U C67A | < 1e-05 s⁻¹ | < 1e-05 s⁻¹ |  |
| C16G A33U G38A G43U C67U | < 1e-05 s⁻¹ | < 1e-05 s⁻¹ |  |
| G9U G29C U54G U69A | < 1e-05 s⁻¹ | < 1e-05 s⁻¹ |  |
| A52U A53C C71G | < 1e-05 s⁻¹ | < 1e-05 s⁻¹ |  |
| U56C U57C | 7.5e-05 ± 2.2e-05 s⁻¹ | 8.12e-05 ± 1.7e-05 s⁻¹ |  |
| A39G C58G G60C | < 1e-05 s⁻¹ | < 1e-05 s⁻¹ | < 1e-05 s⁻¹ |
| G13A C16G G29U G37A G40U | < 1e-05 s⁻¹ |  |  |
| G9C U31G U57A | < 1e-05 s⁻¹ |  |  |
